Source: patent publication US6541208B1, “Diagnostic method for distinguishing HIV-associated dementia from other forms of dementia” (University of Maryland Biotechnology Institute, priority 1998, dated 2003)
Entries after “also recorded” stand apart in the source; their conditions may differ.

B1: Tat: Highly purified recombinant Tat1-72, HIV-1 encoded transactivator protein (protein, UniProt P04608 1-72, looked up, fragment)
chain: MEPVDPRLEPWKHPGSQPKTACTNCYCKKCCFHCQVCFITKALGISYGRKKRRQRRRAHQNSQTHQASLSKQ
B2: Tat1-86: Tat1-86 (Intracel), HIV-1 Tat protein (protein, UniProt P04608 1-86, looked up)
chain: MEPVDPRLEPWKHPGSQPKTACTNCYCKKCCFHCQVCFITKALGISYGRKKRRQRRRAHQNSQTHQASLSKQPTSQPRGDPTGPKE
modifications: full-length
notes: Tat1-86 (Intracel), HIV-1 Tat protein

What was measured:
[1] = test system: astrocytic release of RANTES, MIP-1α and MIP-1β; test: ELISA detection of RANTES, MIP-1α and MIP-1β in astrocyte supernatants; format: cell-based, human; details: Tat treated astrocytes; ELISA detection limit 10 pg/ml
Procedure: MIP1-1α, MIP-1β and RANTES were detected by ELISA (R&D Systems). These ELISAs could detect concentrations as low as 10 pg/ml. Protein measurements were determined by comparison to a standard curve, run in duplicate with each assay.
(§1) To determine whether increased expression of MCP-1 would correlate with increased protein synthesis or release, we next analyzed the supernatants of Tat treated astrocytes by ELISA and Western blot. […] This increase was specific in that astrocytic release of RANTES, MIP-1α and MIP-1β was not observed.

astrocytes = test: Astrocyte proliferation assay (tritiated thymidine); format: cell-based, human; details: Tat 10-1000 nM, twenty hr after administration
Procedure: Astrocytes were grown in 96 well plates. At 70% confluency, cells were treated with varying concentrations of exogenous Tat, in media, which contained 1 μCi per well of tritiated thymidine (New England Nuclear). […] Filters were then dried and placed into scintillation fluid for counting in a Betaplate Apparatus.

[2] = test system: astrocytic MCP-1 expression; test: Northern blot analysis of MCP-1 RNA in stimulated human astrocytes; format: cell-based
Source text: FIG. 1A—Total RNA was extracted from T lymphoblastoid HUT 78 cells (ATCC), and from variously treated human astrocytes. Ten μg per lane were then run on a 1% agarose-6% formaldehyde gel. Following transfer of RNA to nitrocellulose, the blot was probed with the full-length cDNA for MCP-1, and subsequently, RANTES. RNA from untreated astrocytes was run in lanes 2 and 4. […] Astrocytic expression of RANTES was not detected.
FIG. 1B—Similar experience except that RNA from HUT 78 cells (lane 1) was compared to RNA from astrocytes that were unstimulated (lane 2) or stimulated for 2 hr with 100 nM Tat (lane 3), 25 μM TPCK followed by 100 nM Tat (lane 4) or 25 μM TPCK (lane 5).
Brain tissue from 12-14 wk human fetuses was obtained in accordance with NIH guidelines. The tissue was mechanically disrupted by aspiration through a 19-gauge needle, washed in Eagle's minimal essential medium (EMEM) and then distributed into tissue culture flasks. Cells were maintained in EMEM containing 10% fetal bovine serum, 2 mM L-glutamine and 5 μg/ml gentamicin. Several days later, flasks were placed into an orbital incubator shaker at 37° C. and 210 rpm for 6 hr. Non-adherent cells were removed. A portion of the adherent cells were later stained with an antibody to glial fibrallary acidic protein and only those cultures which were >95% positive were used. […]

[3] = test system: astrocytic release of MCP-1; test: Immunoassay (ELISA) and Western blot of MCP-1 in astrocyte supernatants; format: cell-based, human
Procedure: FIG. 2A—Astrocytes were grown to near confluency in […]. Each well contained 10^6 cells in 1 ml medium. Medium was then changed and astrocytes were stimulated with exogenous Tat in doses ranging from 0.01 to 1.0 μM. Twenty hr later, samples were taken for analysis by immunoassay (R&D Systems). […] Data are shown as means +S.E. for three replicates.
FIG. 2B—Similar experiment except that astrocytes were stimulated with 100 nM Tat or with an equivalent amount of Tat that had first been either digested with tripsin (Tat-tr) or immunoabsorbed (Tat-im).
FIG. 3—Western blot analysis of MCP-1 in astrocyte supernatants. In lanes 2-7, 50 μg of protein from variously treated astrocyte supernatants were run on a 15% Tris/Glycine denaturing gel. Three ng of non-glycosylated recombinant MCP-1 (R&D Systems) were run in lane 1 as a control. Following protein transfer to nitrocellulose, the blot was probed with a polyclonal antibody with recognized human MCP-1 (R&D Systems). After washing, an appropriate secondary antibody was applied (horse radish peroxidase conjugated anti-goat, [Santa-Cruz Biotechnology]) and electrochemilurninescence (Amersham) was used to visualize the bands. […] The lower arrow represents a band, which runs with an apparent molecular mass of 9 kDa while the upper band, of slighter high molecular mass, is likely to represent MCP-1, which has been altered by the addition of O-linked carbohydrates. Both forms of MCP-1 are active in vitro.
Astrocytes (10^6 per 1 ml medium) were stimulated with 100 nM HIV-1IIIB gp41 (Intracel) or 100 nM HIV-1IIB gp 120 (Intracel), and supernantants were assessed 24 hr. later by immunoassay (R&D Systems).
Trypsin digestion of Tat was performed by the addition of 25 μl of 0.25% trypsin per μg of Tat. The mixture was then incubated for 4 hr. before the 1:1 addition of soybean tripsin inhibitor (Sigma).
Immunoabsorption of Tat was performed as described previously by Magnusson et al. (1995). Briefly, a Tat specific monoclonal antibody (Intracel) was bound to protein A-sepharose (Pharmacia), washed, and then incubated with Tat for 60 min at room temperature, followed by centrifugation.
as §1

Row | Molecule | astrocytic release of RANTES, MIP-1α and MIP-1β [1] | astrocyte proliferation (astrocytes) | astrocytic MCP-1 expression (MCP-1 encoding RNA) ([2]; 100 nM Tat, 2 or 4 hr stimulation, human astrocytes) | release of MCP-1 after pre-treatment of Tat with trypsin ([3]; 100 nM equivalent of Tat digested with trypsin (Tat-tr)) | release of MCP-1 after immunoabsorption of Tat with a specific antibody ([3]; 100 nM equivalent of immunoabsorbed Tat (Tat-im)) | astrocytic release of MCP-1 ([3]; Tat 0.01 to 1.0 μM, 20 hr, 10^6 cells in 1 ml medium) | concentrations of Tat sufficient to increase astrocytic MCP-1 release ([3]; human astrocytes) | ability to increase astrocytic expression of MCP-1, compared with Tat1-72 ([2]; Tat1-86 (Intracel) versus recombinant Tat1-72)
1 | B1 | not observed | no measurable increase in astrocyte proliferation | increase in astrocytic MCP-1 expression; also recorded: increase in MCP-1 encoding RNA as early as 2 hr | could be inhibited | could be inhibited | significant increase in MCP-1 release; also recorded: dose-dependent increase in astrocytic release of MCP-1 | low nanomolar | 
2 | B2 |  |  |  |  |  |  |  | similar
